Test results as given in US20170073395A1 (Pfizer, published 2017).

Assays:
[1] = target: T1, RAGE (cognate target of the anti-RAGE antibodies; species not stated at the place) (Homo sapiens (Human), UniProt Q15109 23-342); assay: Biacore SPR
T1 construct: not shown: Carrier or tag of the soluble construct
Procedure: ABS leads in human IgG1 format were analyzed for specificity and stability.
(§1) Biacore analysis was performed using the T-200 biosensor, series S CM5 chips, an amine-coupling kit, 10 mM sodium acetate immobilization buffer at pH 5.0, 10×HBS-P running buffer and NaOH for regeneration (GE Healthcare). Kinetic assay conditions were established to minimize the influence of mass transfer, avidity and rebinding events. A predefined ligand immobilization program was set up to immobilize approximately 100 Response Units (RU) of IgG on the chip. Purified target proteins were diluted in HBS-P running buffer to a range of final concentrations and injected at 50 μl/min for 3 mins. Dissociation was allowed to proceed for 10 min followed by a 5 sec pulse of 20 mM NaOH for regeneration of the chip surface. All sensorgrams were analyzed using the Biacore T-200 evaluation software.

[2] = target: T1, RAGE (cognate target of the anti-RAGE …); assay: HTRF epitope competition, IgG titrated; competitor parental IgG (Par-RAGE)
[3] = target: T1, RAGE (cognate target of the anti-RAGE …); assay: Biacore T-200 SPR, IgG immobilised (~100 RU), purified target protein injected
Procedure: as §1

mRAGE = target: T2, mRAGE (mouse, UniProt Q62151 24-342, limits assumed); assay: Biacore specificity assay: IgG immobilised (about 300 RU), antigen m-RAGE-fc injected at 500 nM
T2 construct: also called mouse RAGE
T2 sequence (Q62151 24-342 limits assumed): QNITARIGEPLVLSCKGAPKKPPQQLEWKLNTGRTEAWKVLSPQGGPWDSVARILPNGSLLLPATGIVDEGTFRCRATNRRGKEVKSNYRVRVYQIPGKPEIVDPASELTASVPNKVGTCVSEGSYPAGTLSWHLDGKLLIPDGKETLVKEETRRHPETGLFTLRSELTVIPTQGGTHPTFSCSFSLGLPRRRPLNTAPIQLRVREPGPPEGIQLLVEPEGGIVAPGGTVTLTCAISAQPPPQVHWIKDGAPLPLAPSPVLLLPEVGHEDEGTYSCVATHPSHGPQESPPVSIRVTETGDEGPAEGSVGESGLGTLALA
Procedure: (§2) Biacore specificity analyses were performed using the T-200 biosensor, series S CM5 chips, an amine-coupling kit, 10 mM sodium acetate immobilization buffer at pH 5.0, 10× HBS-P running buffer and NaOH for regeneration (GE Healthcare). A predefined ligand (IgG) immobilization program was set up to immobilize approximately 300 Response Units (RU) on the flow cell for each IgG to be tested. For Anti-RAGE and anti-A33, a panel of fully-purified recombinant target and non-target antigens were diluted in HBS-P running buffer to a final concentration of 500 nM. Four groups of antigens were examined, including: cell membrane proteins (mTRKB, hTRKB, mEGFR, hEGFR, hFceR1, hIL-21R, mICAM1, mICAM2, hICAM1, hCD33, hLAMP-1, hLOX-1, and), soluble signaling molecules (mTNFa, hVEGF, hCXCL13) and albumins (BSA, HSA and MSA). These proteins were injected at 50 μl/min for 3 min, followed by a 5 sec pulse of 20 mM NaOH for regeneration of the chip surface. For pTau, a series of pTau-derived phosphorylated and non-phosphorylated peptides were flowed, as in Shih et al.³. All sensorgrams were analyzed using the Biacore T-200 evaluation software.

hCXCL13 = target: T3, hCXCL13 (human, UniProt O43927 23-109); assay: Biacore specificity assay: IgG immobilised (about 300 RU), antigen injected at 500 nM
T3 construct: Non-target panel protein
T3 sequence (looked up): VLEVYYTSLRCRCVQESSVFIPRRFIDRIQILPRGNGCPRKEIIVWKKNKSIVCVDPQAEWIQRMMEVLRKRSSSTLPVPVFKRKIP
Procedure: as §2

mTRKB = target: T4, mTRKB (mouse, UniProt P15209 32-429, limits assumed); assay: as above
T4 construct: Non-target panel protein
T4 sequence (P15209 32-429 limits assumed): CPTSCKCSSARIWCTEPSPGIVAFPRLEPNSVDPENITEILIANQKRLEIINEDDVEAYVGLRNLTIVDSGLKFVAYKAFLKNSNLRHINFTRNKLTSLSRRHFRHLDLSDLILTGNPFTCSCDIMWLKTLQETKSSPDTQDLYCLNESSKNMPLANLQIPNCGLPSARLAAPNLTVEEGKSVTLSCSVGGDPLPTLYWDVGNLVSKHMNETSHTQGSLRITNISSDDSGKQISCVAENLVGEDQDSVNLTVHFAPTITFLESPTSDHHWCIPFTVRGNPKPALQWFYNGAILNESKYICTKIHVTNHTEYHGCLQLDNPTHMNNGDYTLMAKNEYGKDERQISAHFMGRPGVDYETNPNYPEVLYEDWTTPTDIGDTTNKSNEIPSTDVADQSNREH
Procedure: as §2

mEGFR = target: T5, mEGFR (mouse, UniProt Q01279 25-647, limits assumed); assay: as above
T5 construct: Non-target panel protein
Procedure: as §2

T1 sequence (Q15109 23-342 limits assumed): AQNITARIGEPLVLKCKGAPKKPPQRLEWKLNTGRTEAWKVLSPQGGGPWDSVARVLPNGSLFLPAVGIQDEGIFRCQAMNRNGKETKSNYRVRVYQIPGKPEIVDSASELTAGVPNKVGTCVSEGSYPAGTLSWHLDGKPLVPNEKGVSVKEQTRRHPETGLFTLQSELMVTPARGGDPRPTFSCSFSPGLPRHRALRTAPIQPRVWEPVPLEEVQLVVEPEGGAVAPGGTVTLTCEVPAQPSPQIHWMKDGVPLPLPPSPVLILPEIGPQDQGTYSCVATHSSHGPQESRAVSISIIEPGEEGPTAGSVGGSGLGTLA

B1: C7-ABS-RAGE IgG (human IgG1) (antibody, V domains shown)
VH: EVQLVESGGGLVQPGGSLRLSCAASGFTFSSYWMSWVRQAPGKGLEWVASIDQDGSNKYYPDSVKGRFTISRDNAKNSLYLQMNSLRAEDTAVYYCARGGDITTGLDYWGQGTLVTVSS
VL: DIQMTQSPSSLSASVGDRVTITCRASQSIGSYLNWYQQKPGKAPKLLIYRASSLASGVPSRFSGSGSGTDFTLTISSLQPEDFATYYCLEFDEHPLTFGGGTKVEIK
notes: Human IgG1 format
**Q.** For B1, which “fold affinity improvement over Par-RAGE” value [1] is on record?
**A.** The value was ~2 fold.

**Q.** And the IC50 [2]?
**A.** Its IC50 is 5.8 nM.

**Q.** What about the Kd [3] of the same binder?
**A.** Its Kd is 17 nM.

**Q.** Does B1 bind (mRAGE)?
**A.** Result: binds

**Q.** Does B1 bind (hCXCL13)?
**A.** Result: no binding (tested: 500 nM)

**Q.** Does B1 bind (mTRKB)?
**A.** Result: no binding (tested: 500 nM)

**Q.** Does B1 bind (mEGFR)?
**A.** Result: no binding (tested: 500 nM)
